The source of these data is EP4755449A2 (CHUGAI SEIYAKU KABUSHIKI KAISHA, dated 2026).

One experiment addresses T1, mouse latent myostatin (mouse, UniProt O08689 26-267; O08689 268-376).
T1 sequence 1: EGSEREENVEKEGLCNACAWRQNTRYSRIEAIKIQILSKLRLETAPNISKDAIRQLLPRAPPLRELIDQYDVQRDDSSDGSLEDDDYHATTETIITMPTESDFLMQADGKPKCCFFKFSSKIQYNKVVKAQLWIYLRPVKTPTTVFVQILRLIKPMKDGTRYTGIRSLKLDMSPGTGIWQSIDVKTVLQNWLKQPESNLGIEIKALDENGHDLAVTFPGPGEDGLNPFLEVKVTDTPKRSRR
T1 sequence 2: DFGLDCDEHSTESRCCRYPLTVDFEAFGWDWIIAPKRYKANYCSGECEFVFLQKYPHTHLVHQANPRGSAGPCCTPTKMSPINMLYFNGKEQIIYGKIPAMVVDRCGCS
In words: SPR 37C pH7.4.

Experiment [1] has as its target T2, cynomolgus monkey latent myostatin (cynomolgus monkey, UniProt Q95J86 25-266; Q95J86 267-375, limits assumed).
T2 construct: also called cyno latent myostatin
T2 sequence 1: T1 sequence 1 with G2N, R5Q, E6K, A19T, R25K, Y26S, R59K, A107V, K140E, S173N
T2 sequence 2: T1 sequence 2
In words: SPR 37C pH7.4.

Experiment [2] deals with T3, human latent myostatin (human, UniProt O14793 25-266; O14793 267-375).
T3 construct: non-covalent complex of two propeptides and the mature homodimer; also called human myostatin latent form
T3 sequence 1: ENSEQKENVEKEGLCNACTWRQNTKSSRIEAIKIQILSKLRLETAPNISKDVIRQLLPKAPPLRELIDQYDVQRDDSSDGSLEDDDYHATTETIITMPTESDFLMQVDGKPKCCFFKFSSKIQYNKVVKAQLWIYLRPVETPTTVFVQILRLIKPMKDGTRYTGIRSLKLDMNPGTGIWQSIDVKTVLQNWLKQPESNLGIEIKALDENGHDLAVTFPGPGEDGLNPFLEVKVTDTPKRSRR
T3 sequence 2: T1 sequence 2
The experiment can be described thus: SPR 37C pH7.4.

Experiment [3] concerns the target T4, Human GDF11 with Flag-tag on N-terminus (human, UniProt O95390 11-407).
T4 construct: processing of the expressed protein not described; also called Flag-hGDF11; human latent GDF11
T4 sequence: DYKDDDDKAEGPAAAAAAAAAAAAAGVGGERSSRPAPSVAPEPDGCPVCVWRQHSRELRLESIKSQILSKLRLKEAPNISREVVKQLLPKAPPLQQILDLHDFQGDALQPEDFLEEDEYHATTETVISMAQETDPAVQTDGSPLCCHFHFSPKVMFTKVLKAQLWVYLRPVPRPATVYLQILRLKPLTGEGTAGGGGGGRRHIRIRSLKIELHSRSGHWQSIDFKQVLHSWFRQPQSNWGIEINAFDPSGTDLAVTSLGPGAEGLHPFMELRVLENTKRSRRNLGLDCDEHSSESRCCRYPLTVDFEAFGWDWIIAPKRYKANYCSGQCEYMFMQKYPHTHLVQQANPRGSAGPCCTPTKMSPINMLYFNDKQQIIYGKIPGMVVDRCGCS
The experiment can be described thus: ELISA, biotinylated antigen on streptavidin plate. On the technique in general: In an ELISA, binding on a coated surface is turned into a signal by an enzyme label.

The next experiment concerns the target T5, mature myostatin (human (mature form 100% identical in …, UniProt O08689 268-376 (mouse entry))).
T5 construct: biotinylated in the ELISA; also called myostatin mature form; active myostatin
T5 sequence: T1 sequence 2
The experiment can be described thus: ELISA, biotinylated antigen on streptavidin plate.

The target of experiment [4] is T3, human latent myostatin. The experiment can be described thus: SPR 37C pH7.4. This is another data set of the same source.

Numbering of substitutions follows the chain as printed. Where two headings read alike, the source gives them in different places.

B1: MS_MST1032Ha-G1m/MST1032La-k0MC (antibody, human IgG1, kappa, V domains shown)
VH: QSLEESGGRLVTPGGSLTVTCRVSGIDLSSYDISWVRQAPGKGLEWIGIISYAGSTYYASWAKGRFTISKTSTTVDLKMTSLTTEDTATYFCARGVPAYSTGGDLWGPGTLVTVSS
VL: AQVLTQTASSVSAAVGGTVTINCQSSQSVYDNNWLSWFQQKPGQPPKLLIYWASTLASGVPSRFKGSGSGTQFTLTISDLECDDAATYYCAGGYGGGLYAFGGGTKVEIKR
notes: rabbit/human chimeric; also called MST1032-G1m
For the molecule B1, the Kd (in general, the concentration at which binding is half-saturated) came to 0.0579 nM with mouse latent myostatin, 0.0717 nM in experiment [1], 0.0766 nM in the experiment with human latent myostatin [2] and 0.0766 nM with human latent myostatin [4]. Also, the koff (as a rule, the rate constant with which the complex falls apart) with mouse latent myostatin was found to be 8.16e-05 s⁻¹; in experiment [1], 7.79e-05 s⁻¹; in the experiment with human latent myostatin [2], 8.65e-05 s⁻¹; with human latent myostatin [4], 8.65e-05 s⁻¹. In addition, the kon (as a rule, the second-order rate constant of association) with mouse latent myostatin stood at 1.41e+06 M⁻¹ s⁻¹; in experiment [1], 1.09e+06 M⁻¹ s⁻¹; in the experiment with human latent myostatin [2] it was 1.13e+06 M⁻¹ s⁻¹; with human latent myostatin [4] it was 1.13e+06 M⁻¹ s⁻¹. The binding result (in experiment [3]; in the experiment with mature myostatin) was “no binding” throughout.
